Test results: PMC10505172 (2023)
“And” between values parts separate entries of the source, which are not always exact repeats. Equal entries are not always repeated. Where two headings read alike, the source gives them in different places.

What was measured:
[1] = target: T1, HIS:SUMO:HD2 fusion protein (tick; entry name EVA4_RHISA, the …); test: BLI
[2] = target: T1, HIS:SUMO:HD2 fusion protein; test: BLI; remark: listed apart in the source

B1: CCL8 (ligand)
chain: QPDSVSIPITCCFNVINRKIPIQRLESYTRITNIQCPKEAVIFKTKRGKEVCADPKERWVRDSMKHLDQIFQNLKP
Kd [1]: 142 nM | Kd [2]: 142 nM and 84.9 nM
